Test results as given in the DeepSol protein solubility set.

Assay: soluble on expression in E. coli; label from the status in PepcDB or PDB records

Sequence	soluble on expression in E. coli
MKQILCTLDYELYGNGTGDVFEHIIKPTEELLAIARRHGIKYTIFFEVVEFWYLKREWERGNKMGYTEDPISAMEQQLREAYLQGHDVQLHLHPQWIGAVHQDGQWRLDLSNWCLGRYQGKGEYSLLSLLKRGKETIEEIIRPVDPHYSCIALRAGGYNAQPSEEIVRAMRQVGLKVDSSIYPGGFETGALSNYDYSSVAPDLGHWYVEDRLEYSAHGATDILELPIVAFPIRRLQKYLSLDRIKALFQNRKSAADTYSAKTANKGGIWGKISYFVELEWQTWDFCLFSKNLHRRFLKRVESQRGRKEFVLVGHPKSFVSGESFNYLIGQLKSSYQFLSMTELYDQRLKIGTKKGVKDTHKPETPAPEGPSPEGPEAGL	not soluble
MEEGDIVGILKVFFVRTGAIGKRLGFKAGDIRIREEIVQANLTWKEDGEIRRERIKTRFFGYFRSHVAEWEPVIAAESVDVERGEVARIKIKEITLPEYTVITPLFIRRHALGSLIDVVQQGKRRKVEEKKRIGEAIFLPARSGRVEKGDLLGVINVYYIATENFSVGRREKDEVLAKVVDERGRKEFRIKPFAYRRKTIARWEPIVAAENRKVRKGEVEEIAIEPISLEENTIVYPLYVMRNAFGSVVDVVEERPRRVEERREIIKAVFLPVFDGEIRKGQLLGVMNVYSIEVQPYEVIWRWLEEWQGEFRRLFAEVVGLEHHHHHH	soluble
MMNLRSIAMNKPDLVIFFDGQCPLCCNEMRALKTADHQARILLVDVHDTDTMSCYPSIDKQRALSILHGIDQQGQLLYGLDVTVLAWRLVNRHRWLFITRMPILKGISDRMYLLFAKHRMRLSRWFGQTQCQEGVCQKKLEHHHHHH	soluble
MVGRVAQGKEPLHPGPRRQPGGARPGADLGPGGGVNPSPRKRVALFTDGACLGNPGPGGWAALLRFHAHEKLLSGGEACTTNNRMELKAAIEGLKALKEPCEVDLYTDSHYLKKAFTEGWLEGWRKRGWRTAEGKPVKNRDLWEALLLAMAPHRVRFHFVKGHTGHPENERVDREARRQAQSQAKTPCPPRAPTLFHEEA	soluble
DRRFQETLDKIRKEEGYDFAAIAFYESNKPSSPIKWHYVSGNKNNRFKLIILRKGRGLAGTVMKTGKRMVIANVGLALGPEEKIDYPILLSESLTAVLAVPLWYKNQVYGVLLFGQRDGRPLPKIFDNDDIQ	not soluble
MGSDKIHHHHHHMQGRTPLLETLRELECEIRLLTVYARECCGCYEILRRKLDRLSGLIGEDCSRAQWQADSDDPALQALGLRLRDAAVQALCELEKHLCQGVLHEPGEMGRYLGSLLESIRGELDSAGIYAYARVLFVGSGALPTSALVLAREVGAHLCCLDIDEEALGCAREIARCQGLEARMQFSSLPPAELAFSRDATHFLIASLVQQKSAVLAQIRQVMRADAKVLLRHGSGIKGLFNYPVEPAELDGWRVCAERVSQPLYDTLILEKAGR	not soluble
MGSDKIHHHHHHMPCKNFFTTRPIMEEDCLWDKRRKIVDDLFRTVLRGNIAILLGPRRVGKTSVVNVISQKFAKRRNHHYIYFNFSRFIGARAISIADIEPKRTSLKLITTSKSYVISLKGISVEVRKTSIEEFTSDFSTLVRILSQNSERGLLIFDEAQVLARLKNLDFRGLIQEITDSYPNISMIFTGSMPGLLIEYLNPGPDKPNFMRASETFTLSRWNVEEGLEFLKKGFESYGISVRNELELERAVKELGGIPGFISYYGITVINLVRSGVPVEKALPRALEESKRYALEEWKKDLEAFLNVYNSPIYVEVMKVLASSYPTALKGAEVYRRMNRAPKRIQHIYKYLDVLEKVGFIRSEGGKYWIEDPILRELLT	not soluble
NDEDCRNIYRYSPKDRKFEKLNLETDVTSAFAMSENNPSLAAYIGQGCYNAGVAYVYDLKKKTSRLIADPMKPTLERIELGEMKPWNFTASDGTEIKGMMCLPPSFDPNKKYPLIVYYYGGTTPTERGISNPYCAQLFASRDYVVYVIQPSGTIGFGQEFSARHVNAWGKRTADDIIEGTKQFCKEHPFVNDKKIGCLGASYGGFMTQYLQTQTDIFAAAVSHAGISNVTSYWGEGYWGYGYNAIAAADSYPWNNPELFTKQGSLFNADKINTPLLLLHGTVDTNVPIGESIQLFNALKILGKTVEFITVDGENHFIADYPKRMQWHNSIMAWFARWLQ	not soluble
MATPASGALLQQMNLASQSLNYELSFISINKQGVESLRYRHARLDNRPLAQLLQMDGPRREVVQRGNEISYFEPGLEPFTLNGDYIVDSLPSLIYTDFKRLSPYYDFISVGRTRIADRLCEVIRVVARDGTRYSYIVWMDTESKLPMRVDLLDRDGETLEQFRVIAFNVNQDISSSMQTLAKANLPPLLSVPVGEKAKFSWTPTWLPQGFSEVSSSRRPLPTMDNMPIESRLYSDGLFSFSVNVNRATPSSTDQMLRTGRRTVSTSVRDNAEITIVGELPPQTAKRIAENIKFGAAQHHHHHH	soluble
MDPGKKKQHICHIQGCGKVYGKTSHLRAHLRWHTGER	soluble
MDESTCPIIEAIREVGKENDLLVIRLLSDNDLGFNQILKLAGKMSPKTLSVTLKRLTEKKIIYRDVVSTQPFRVKYRLTEKGQELRNVLNDLGQWGERWILNNESQSAVNTENYRLKS	not soluble
MYRVFECFDELIDILEKSTGVPMTSNCMVPRHHMLALIDEARNALPNEIDDAQDVIDQQDEILRGAQERARTTIDEANEEARRTVTQSREEADALVADAEEHAERVVRQAQDEADRLVDGARREADDTVNRAQAEAERLIASGNDQYQRSVDDGLAEQQRLVSEAEVVRRANEEAHRVVDAAHADSNRLRKECDTFVENKLADLEESLSSTLRTISRDRAALRRGAGASGGGNHSQS	not soluble
MSLKLLPAKQEAIEFVHFANVINDYLYKYPDKRNSGGTLTSEQIGITPVYDIHHIIYGKRVYIWSADTEGLMSALQQQTKHSAMLGRVKNKKIVDNQGNDMGVPVPSSIPEEAIVLINEGHHHHHH	soluble
MKDVAKLLKILPPTFNETVLLPVQTQLKEHYPRTVSLVKNLVSPLPEEYRFLTEVLLSVLLSGEISETIPYQALLVAHGESTATSIQAVANKLCGTYIFDAINMPLTSSVRDIVAEVKEWLSQRDTSQGVIMLVDMGSLTQLYKSLKPQILGELLVINNLTTAYALEIGHQLMNEQLFYGIAKTAEKKFKTDVQYFEGFSVEKNIIVSSISGLDIAKQIKQICQKYLYTDIKVITLKYKDLVNTLDIANAEENYLKETSLILTTSYLDNHTNVASVNLLDMLDEDAGTQLMEPFQNLMHPNNIDSMINEFVHFFSKEGLSEKLEFLNPDVIIKQVENVTKNIEKRFDLTLSGKMKFNLMMHNALMVERTMLGVEDYEIPANLEELTINQKPFFQNAKNIFYTLEQFYRIEISNWELYVIYEILSSR	not soluble
METEIPVNEKETSFRRRVYTTIETLIDIENTDQLQEHLPHLHCLGWDEVVEERYVNKQCGFPSCQKAPPKITRNQMFEIDRKEGKIFEFRKQRAKFCSEMCYQKSSFVRKQLDEHPLWITGLTEARTQKVYEVPDESFVSPIAEKSEPVDSQFKKEPSIWLVTDSIIAKVQDMKLSEEAEEPKSLDPEDQDIEPFKLTDDDKDFIKSIKEFRNSNFGPPSTSKLLKTAPKPVLSAKDRKKEDEVLAKLRAKYGNKNALQKKPPILIEAQEIHSKLKTMEKAKEAWLVDLIKSWFTPETRKLVREGARPTGGAAEQILMDFLSGKKVDAEKLVNLPNLDKYNVKEKRLNIFLHSIRNHWMDLEARLHLTPTRRDILSRVASTFQLDSENITGWTKREINSIVIALFIVICLVDVELGDDYFKKDNASPELTAISNELCGLDSFQITGLHAAIKSQC	not soluble
MQPIPDVNQRIARISAHLHPPKSQMEESSALRRANCRAKGGAPGFKVAILGAAGGIGQPLAMLMKMNPLVSVLHLYDVVNAPGVTADISHMDTGAVVRGFLGQQQLEAALTGMDLIIVPAGVPRKPGMTRDDLFKINAGIVKTLCEGIAKCCPRAIVNLISNPVNSTVPIAAEVFKKAGTYDPKRLLGVTMLDVVRANTFVAEVLGLDPRDVDVPVVGGHAGVTILPLLSQVKPPSSFTQEEISYLTDRIQNGGTEVVEAKAGAGSATLSMAYAAVKFADACLRGLRGDAGVIECAFVSSQVTELPFFASKVRLGRNGIEEVYSLGPLNEYERIGLEKAKKELAGSIEKGVSFIRSHHHHHH	soluble
MSGFLEQRLGHCLRQMAEKGLEALLVTHLTNSYYLTGFSGTAATVLITAKRRVLITDSRYTLLAKASVEGFDIIESRTPLKVVAELLEADQIDCLGFEDQVSFSFYQAMQAELSGITLLAQSGFVEHLR	soluble
